This assay concerns the target elastase (UniProt P00772).

With tutuilamide B (peptide), the inhibition of the activity of elastase (IC50) turned out to be 3.6 nM. As for tutuilamide A (peptide), the figure is 4 nM.

Source of the values: PMC7024214.
